The results in this text go back to patent publication US20250215412A1 (NOVOZYMES A S, published 2025).

In the assay the target is T1, Chryseobacterium sp-62563 deamidase polypeptide (second polypeptide, deamidase domain), wildtype (Chryseobacterium sp-62563).
T1 sequence: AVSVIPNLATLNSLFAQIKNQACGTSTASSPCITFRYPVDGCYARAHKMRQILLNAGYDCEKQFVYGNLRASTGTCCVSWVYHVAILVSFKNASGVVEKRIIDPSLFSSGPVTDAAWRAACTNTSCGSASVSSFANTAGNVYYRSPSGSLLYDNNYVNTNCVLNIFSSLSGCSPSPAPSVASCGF
Briefly: cell-based or functional assay.

Changes are numbered by the printed parent chain. Names and notes keep the numbering of the source.

B1: Chryseobacterium sp-62563 propeptide V98M (protein)
chain: NQDPNLVAKESNETAMKDFGKTVPVGIEKEDGKFKISFMVTAQPYEIKDSKENAAYISMIKTAVENETPIHVFLKANTNEIAKVDKATDDDIRYFKSMFTKEVKEENRK
On to B1, for which the Relative activity of maturated deamidase (% initial rate) worked out at 41.

B2: Chryseobacterium sp-62563 propeptide F95I (protein)
chain: B1 chain with F95I, M98V
In turn, B2 yielded a Relative activity of maturated deamidase (% initial rate) of 58.

B3: Chryseobacterium sp-62563 propeptide F95N (protein)
chain: B1 chain with F95N, M98V
Molecule B3 had a Relative activity of maturated deamidase (% initial rate) of 85.

B4: Chryseobacterium sp-62563 propeptide K96V (protein)
chain: B1 chain with K96V, M98V
On to B4, for which the Relative activity of maturated deamidase (% initial rate) was 41.

B5: Chryseobacterium sp-62563 propeptide K96I (protein)
chain: B1 chain with K96I, M98V
For the molecule B5, the Relative activity of maturated deamidase (% initial rate) amounted to 71.

B6: Chryseobacterium sp-62563 propeptide P69M (protein)
chain: B1 chain with P69M, M98V
In the case of B6, the NanoDSF thermal unfolding temperature is 79.1 ° C and the Relative activity of maturated deamidase (% initial rate) is 67.

B7: Chryseobacterium sp-62563 propeptide V98K (protein)
chain: B1 chain with M98K
B7 showed a Relative activity of maturated deamidase (% initial rate) of more than 100.

B8: Chryseobacterium sp-62563 propeptide D91Q (protein)
chain: B1 chain with D91Q, M98V
The molecule B8 gave a Relative activity of maturated deamidase (% initial rate) of 28.

B9: Chryseobacterium sp-62563 propeptide K96W (protein)
chain: B1 chain with K96W, M98V
Molecule B9 displayed a Relative activity of maturated deamidase (% initial rate) of 51.

B10: Chryseobacterium sp-62563 propeptide D91S (protein)
chain: B1 chain with D91S, M98V
Molecule B10 showed a Relative activity of maturated deamidase (% initial rate) of 48.

B11: Chryseobacterium sp-62563 propeptide S97R (protein)
chain: B1 chain with S97R, M98V
For the molecule B11, the Relative activity of maturated deamidase (% initial rate) amounted to 30.

B12: Chryseobacterium sp-62563 propeptide F95S (protein)
chain: B1 chain with F95S, M98V
With B12, the Relative activity of maturated deamidase (% initial rate) was more than 100.

B13: Chryseobacterium sp-62563 propeptide F95Y (protein)
chain: B1 chain with F95Y, M98V
Consider B13, for which the Relative activity of maturated deamidase (% initial rate) turned out to be 27.

B14: Chryseobacterium sp-62563 propeptide F95L (protein)
chain: B1 chain with F95L, M98V
Molecule B14 returned a Relative activity of maturated deamidase (% initial rate) of 61.

B15: Chryseobacterium sp-62563 propeptide K96Y (protein)
chain: B1 chain with K96Y, M98V
Molecule B15 registered a Relative activity of maturated deamidase (% initial rate) of 73.

B16: Chryseobacterium sp-62563 propeptide K96N (protein)
chain: B1 chain with K96N, M98V
B16 had a Relative activity of maturated deamidase (% initial rate) of 55.

B17: Chryseobacterium sp-62563 propeptide V98A (protein)
chain: B1 chain with M98A
As for B17, the Relative activity of maturated deamidase (% initial rate) was found to be 68.

B18: Chryseobacterium sp-62563 propeptide F95T (protein)
chain: B1 chain with F95T, M98V
The molecule B18 showed a Relative activity of maturated deamidase (% initial rate) of 93.

B19: Chryseobacterium sp-62563 propeptide Y94K (protein)
chain: B1 chain with Y94K, M98V
Regarding B19, the Relative activity of maturated deamidase (% initial rate) was determined as 49.

B20: Chryseobacterium sp-62563 propeptide P69T (protein)
chain: B1 chain with P69T, M98V
As for B20, the NanoDSF thermal unfolding temperature amounted to 78.5 ° C and the Relative activity of maturated deamidase (% initial rate) was found to be 33.

B21: Chryseobacterium sp-62563 propeptide V98C (protein)
chain: B1 chain with M98C
In turn, B21 showed a Relative activity of maturated deamidase (% initial rate) of 65.

B22: Chryseobacterium sp-62563 propeptide V98G (protein)
chain: B1 chain with M98G
In turn, B22 gave a Relative activity of maturated deamidase (% initial rate) of more than 100.

B23: Chryseobacterium sp-62563 propeptide F95H (protein)
chain: B1 chain with F95H, M98V
Molecule B23 had a Relative activity of maturated deamidase (% initial rate) of 76.

B24: Chryseobacterium sp-62563 propeptide P69Q (protein)
chain: B1 chain with P69Q, M98V
The molecule B24 gave a NanoDSF thermal unfolding temperature of 74.1 ° C and a Relative activity of maturated deamidase (% initial rate) of more than 100.

B25: Chryseobacterium sp-62563 propeptide K96L (protein)
chain: B1 chain with K96L, M98V
Turning to B25, the Relative activity of maturated deamidase (% initial rate) was found to be 50.

B26: Chryseobacterium sp-62563 propeptide K96E (protein)
chain: B1 chain with K96E, M98V
B26 displayed a Relative activity of maturated deamidase (% initial rate) of more than 100.

B27: Chryseobacterium sp-62563 propeptide V98H (protein)
chain: B1 chain with M98H
With B27, the Relative activity of maturated deamidase (% initial rate) was found to be 54.

B28: Chryseobacterium sp-62563 propeptide D91M (protein)
chain: B1 chain with D91M, M98V
In turn, B28 came in with a Relative activity of maturated deamidase (% initial rate) of 31.

B29: Chryseobacterium sp-62563 propeptide I92S (protein)
chain: B1 chain with I92S, M98V
Consider B29, for which the Relative activity of maturated deamidase (% initial rate) was found to be 40.

B30: Chryseobacterium sp-62563 propeptide I92G (protein)
chain: B1 chain with I92G, M98V
For the molecule B30, the Relative activity of maturated deamidase (% initial rate) came out at 69.

B31: Chryseobacterium sp-62563 propeptide Y94R (protein)
chain: B1 chain with Y94R, M98V
B31 gave a Relative activity of maturated deamidase (% initial rate) of 52.

B32: Chryseobacterium sp-62563 propeptide I92L (protein)
chain: B1 chain with I92L, M98V
In the case of B32, the Relative activity of maturated deamidase (% initial rate) worked out at 31.

B33: Chryseobacterium sp-62563 propeptide K96T (protein)
chain: B1 chain with K96T, M98V
B33: the Relative activity of maturated deamidase (% initial rate) was found to be 34.

B34: Chryseobacterium sp-62563 propeptide K96M (protein)
chain: B1 chain with K96M, M98V
Take B34: the Relative activity of maturated deamidase (% initial rate) was found to be 45.

B35: Chryseobacterium sp-62563 propeptide K96C (protein)
chain: B1 chain with K96C, M98V
The molecule B35 gave a Relative activity of maturated deamidase (% initial rate) of 95.

B36: Chryseobacterium sp-62563 propeptide I92A (protein)
chain: B1 chain with I92A, M98V
The molecule B36 displayed a Relative activity of maturated deamidase (% initial rate) of 31.

B37: Chryseobacterium sp-62563 propeptide F95A (protein)
chain: B1 chain with F95A, M98V
In turn, B37 gave a Relative activity of maturated deamidase (% initial rate) of more than 100.

B38: Chryseobacterium sp-62563 propeptide F95V (protein)
chain: B1 chain with F95V, M98V
In the case of B38, the Relative activity of maturated deamidase (% initial rate) came out at 66.

B39: Chryseobacterium sp-62563 propeptide K96F (protein)
chain: B1 chain with K96F, M98V
In turn, B39 gave a Relative activity of maturated deamidase (% initial rate) of 95.

B40: Chryseobacterium sp-62563 propeptide P69S (protein)
chain: B1 chain with P69S, M98V
In turn, B40 displayed a NanoDSF thermal unfolding temperature of 77.7 ° C.

B41: Chryseobacterium sp-62563 propeptide K96H (protein)
chain: B1 chain with K96H, M98V
B41 gave a Relative activity of maturated deamidase (% initial rate) of 30.

B42: Chryseobacterium sp-62563 propeptide V98E (protein)
chain: B1 chain with M98E
In turn, B42 gave a Relative activity of maturated deamidase (% initial rate) of more than 100.

B43: Chryseobacterium sp-62563 propeptide F95R (protein)
chain: B1 chain with F95R, M98V
For B43, the Relative activity of maturated deamidase (% initial rate) was more than 100.

B44: Chryseobacterium sp-62563 propeptide I92M (protein)
chain: B1 chain with I92M, M98V
Molecule B44 had a Relative activity of maturated deamidase (% initial rate) of 38.

B45: Chryseobacterium sp-62563 propeptide K96Q (protein)
chain: B1 chain with K96Q, M98V
B45 showed a Relative activity of maturated deamidase (% initial rate) of more than 100.

B46: Chryseobacterium sp-62563 propeptide F95K (protein)
chain: B1 chain with F95K, M98V
B46: the Relative activity of maturated deamidase (% initial rate) was more than 100.

B47: Chryseobacterium sp-62563 propeptide D91H (protein)
chain: B1 chain with D91H, M98V
B47 gave a Relative activity of maturated deamidase (% initial rate) of 64.

B48: Chryseobacterium sp-62563 propeptide F95W (protein)
chain: B1 chain with F95W, M98V
For the molecule B48, the Relative activity of maturated deamidase (% initial rate) came out at 58.

B49: Chryseobacterium sp-62563 propeptide I92K (protein)
chain: B1 chain with I92K, M98V
B49 displayed a Relative activity of maturated deamidase (% initial rate) of 32.

B50: Chryseobacterium sp-62563 propeptide F95M (protein)
chain: B1 chain with F95M, M98V
On to B50, for which the Relative activity of maturated deamidase (% initial rate) came out at 51.
